Experimental data published in US20230176076.

System: T1, JUL1 (JULGI) (Arabidopsis thaliana)
T1 sequence: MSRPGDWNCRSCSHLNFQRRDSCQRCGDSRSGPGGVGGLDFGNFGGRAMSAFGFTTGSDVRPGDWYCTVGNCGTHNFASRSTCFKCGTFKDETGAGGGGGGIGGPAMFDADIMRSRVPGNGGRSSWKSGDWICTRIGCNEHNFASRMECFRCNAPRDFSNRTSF
Assay: EMSA
Settings: method inferred from context

SMXL5 5'UTR G-quadruplex probe was tested, and the Kd (with potassium) was 130 nM and the Kd (without potassium) was 230 nM.
